Patent publication US20140342037A1, “NOVEL PREBIOTICS” (DSM IP ASSETS B.V., priority 2007, published 2014)

What was measured:
[1] = cited from earlier work
[2] = Proteolytic (endo-protease) activity on substrates ZAAXpNA; assay type: biochemical; settings: purified enzyme preparation
[3] = system: κ-casein in milk and GMP-protein in whey; assay: Liberation of free sialic acid from milk and whey by sialidase (RP-HPLC, DMB labelling); assay type: biochemical; settings: milk and whey incubated with sialidase ZJW 0.4 U/ml at room temperature (20-21° C.)
From the text: Free sialic acid can be analyzed by means of reverse-phase HPLC, using fluorescence detection with excitation at 310 nm and emission 448 nm after labelling with DMB compound. This method was recently described in literature (M. J. Martin et al Anal. Bional. Chem., 2007, 387, 2943-29-49) and allowed fast and accurate determination of free sialic contents in samples.
Milk was reconstituted by using NILAC low heat skim milk powder (NIZO, The Netherlands); whey was obtained from a local cheddar making facility. The milk and whey samples were treated as follows: milk and whey was incubated separately with sialidase ZJW (0.4 U/ml) at room temperature (20-21° C.) and the reaction was terminated at different moments of time by heating the samples in water bath at 95° C. for 5 minutes. A series of several sialidase ZJW concentrations and incubation times were performed. The samples used for HPLC analysis need to be free from proteins. Therefore, samples were filtered with a Nanosep ultra filtration Eppendorff (10 KD) using centrifugation for 15 minutes at 14000 g. After centrifugation, the free protein supernatant was collected and diluted 100 times with milliQ water in order to measure the sialic acid in a proper range of concentrations (measuring range using RP HPLC method is 5 fmol-5 nmol of sialic acid). […]

CC(=O)N[C@H]1[C@H]([C@H](O)[C@H](O)CO)OC(O)(C(=O)O)C[C@@H]1O (stereo partly shown) [Sialic acids, N-acetylneuraminic acid]
pKa [1]: around 2.2

B1: sialidase ZJW: secreted fungal sialidase from Penicillium chrysogenum (SEQ ID NO: 3), overexpressed in Aspergillus niger (protein, listed as Penicillium chrysogenum)
chain: MLSSLMYLARECSILRAISLCAILAVATPAASASVTAKHTLATNGKGLFPQYRIVALASLGNGVLLASYDGRPDGGDSPSPNSILQRRSTDGGKTWGNPTYIARGQPASSTLQQYGFSDPSYVVDSGTGKVFNFHVFSKNQGFLNSEIGNDDTDLNIVSAEVSVSTDGGLSWTTDPDHESSLPPVASADVANVGGITGMFASSGEGIQLKYGKHAGRLVQQFLGKVIQSDGSKVSQAYSVYSDDGGAIWKMGKVIGTGMDENKVVELSNGNLMLNSRPSDGSGYRKVATSTDGGETWSTPASETQLPDPGNNGAITRMYPDAAHGSANAKILLFTNANSKTSRSNGTIRYSCDDGKTWSSGAVFQSGSMSYSTVTALGDDRFGIFYEGDSNDLVYIEVSKDFIGVSC
proteolytic activity on a series of substrates ZAAXpNA [2]: does not show proteolytic activity | free sialic acid levels (concentration) ([3]; after 4 hours): approximately 220 mg/L | levels of free sialic acid ([3]; after 20 hours of incubation): 250 mg/L
